The target of assay [1] is E1E2 Y443A (H77 alanine-scanning library clone) (hepatitis C virus genotype 1a, strain H77). The assay is described as follows: flow cytometry on cells. In general terms: Flow cytometry measures light scatter and fluorescence of single cells or particles in a stream.
Assay [2] addresses E1E2 S432A (H77 alanine-scanning library clone) (hepatitis C virus genotype 1a, strain H77). The assay is described as follows: flow cytometry on cells.

B1: monoclonal antibody AR3C (antibody, V domains shown)
VH: VQLLEQSGAEVKKPGSSVKVSCETSGGTFDNYALNWVRQAPGQGLEWIGGVVPLFGTTRNAQKFQGRVTISDDKSTGTGHMELRSLRSEDTAVYYCVRSVTPRYCGGGFCYGEFDYWGQGTLVTVSS
VL: EIELTQSPATLSVSPGERATLSCRASQSVSSNLAWYQQKPGQAPRLLIYGASTRATGIPARFSGSGSGTEFTLTVSRLEPEDSAVYFCQQYYRSPLTFGGGTKVEIK
For the molecule B1, the values for the % reactivity (of wild type) in assay [1] and in assay [2] were 15% and 55%, respectively.

The values are drawn from article PMC5749897.
